Data as given in article PMC6335422 (Nature Communications, 2019).
Where no end group is shown, it is not given here.

Legend:
Erh1 (Erh1wt) = target: T1, Erh1 (Erh1wt) (Schizosaccharomyces pombe, UniProt G2TRN4); experiment: Isothermal titration calorimetry (ITC), SUMO-tagged Mmi1 peptides titrated into wild-type Erh1; type: binding, S. pombe; settings: Erh1wt, ITC, 293 K, 20 mM Tris-HCl pH 7.5, 150 mM NaCl, SUMO-tagged Mmi1 peptide, single-site model
T1 construct: A region of Erh1 (residues 1–104) was amplified by PCR; made in house; host or cells: Escherichia coli BL21 (Gold)
T1 sequence (G2TRN4 1-104): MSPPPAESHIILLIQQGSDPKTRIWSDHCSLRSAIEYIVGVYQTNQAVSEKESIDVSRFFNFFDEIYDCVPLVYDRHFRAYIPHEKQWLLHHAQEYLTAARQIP
Procedure: (§1) The titration protocol consisted of a single initial injection of 1 µl, followed by 19 injections of 2 µl SUMO-tagged Mmi1 peptides into the sample cell containing Erh1 protein. Thermodynamic data were analyzed with a single-site binding model using MicroCal PEAQ-ITC Analysis Software provided by the manufacturer.

Erh1 R23A = target: T2, Erh1 R23A (Schizosaccharomyces pombe, UniProt G2TRN4, R23A); experiment: ITC, Mmi1 peptide titrated into Erh1 R23A; type: binding, S. pombe
T2 construct: A region of Erh1 (residues 1–104) was amplified by PCR; made in house; host or cells: Escherichia coli BL21 (Gold)
T2 sequence (G2TRN4 whole entry R23A, the tested form may be a part): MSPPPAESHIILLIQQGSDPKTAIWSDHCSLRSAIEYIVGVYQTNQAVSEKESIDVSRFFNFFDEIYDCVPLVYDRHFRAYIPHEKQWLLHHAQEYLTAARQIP
Procedure: as §1

Erh1 D27A = target: T3, Erh1 D27A (Schizosaccharomyces pombe, UniProt G2TRN4, D27A); experiment: ITC, Mmi1 peptide titrated into Erh1 D27A; type: binding, S. pombe
T3 construct: A region of Erh1 (residues 1–104) was amplified by PCR; made in house; host or cells: Escherichia coli BL21 (Gold)
T3 sequence (G2TRN4 whole entry D27A, the tested form may be a part): as the sequence (G2TRN4 whole entry R23A, the tested form may be a part) above, with A23R, D27A counted along it
Procedure: as §1

Erh1 D68A = target: T4, Erh1 D68A (Schizosaccharomyces pombe, UniProt G2TRN4, D68A); experiment: ITC, Mmi1 peptide titrated into Erh1 D68A; type: binding, S. pombe
T4 construct: A region of Erh1 (residues 1–104) was amplified by PCR; made in house; host or cells: Escherichia coli BL21 (Gold)
T4 sequence (G2TRN4 whole entry D68A, the tested form may be a part): as the sequence (G2TRN4 whole entry R23A, the tested form may be a part) above, with A23R, D68A counted along it
Procedure: as §1

Erh1 E85A = target: T5, Erh1 E85A (Schizosaccharomyces pombe, UniProt G2TRN4, E85A); experiment: ITC, Mmi1 peptide titrated into Erh1 E85A; type: binding, S. pombe; settings: 293 K, pH 7.5
T5 construct: A region of Erh1 (residues 1–104) was amplified by PCR; made in house; host or cells: Escherichia coli BL21 (Gold)
T5 sequence (G2TRN4 whole entry E85A, the tested form may be a part): as the sequence (G2TRN4 whole entry R23A, the tested form may be a part) above, with A23R, E85A counted along it
Procedure: as §1

Erh1 = experiment: GST pull-down of Erh1 with GST-tagged Mmi1 fragments, Coomassie; type: binding, S. pombe; settings: GST-Mmi1 fusion incubated with Erh1, glutathione-agarose, SDS-PAGE
Source text: Fig. 1 Mmi1 interacts with Erh1 in a 2:2 stoichiometry. a Shown is a schematic representation of the domain architecture of Mmi1. The disorder score from DISOPRED3 Server[62] and the conservation score are shown below. The conservation score is generated by a Protein Residue Conservation Prediction Server[63] from the sequence alignment of Mmi1 orthologues from S. pombe, S. cryophilus, S. octosporus, and S. japonicus. b–d Interactions of GST tagged Mmi1 peptides (GST-Mmi1) with Erh1 visualized by Coomassie blue staining. The indicated GST-Mmi1 fusion proteins or GST alone were incubated with Erh1. The complexes were collected with glutathione-agarose resin and bound proteins were eluted and then subjected to SDS-PAGE. GST or GST-Mmi1 fusion proteins without Erh1 are shown as a negative control. Source data are provided as a Source Data file. e The raw ITC titration data of Erh1 with SUMO tagged Mmi1^95–122 and its fitting curve are shown. KD dissociation constant, DP differential power, N binding stoichiometry, ΔH binding enthalpy. f ITC fitting curves of Erh1 using SUMO tagged Mmi1^95–122 (magenta), Mmi1^106–122 (blue) and Mmi1^95–111 (green) are shown. g Size-exclusion analysis of Erh1 (magenta) and Erh1-Mmi1^95–122 (blue). Marker sizes are 62.9 KDa (Albumin), 46.7 KDa (Ovalbumin), 20.3 KDa (Chymotrypsinogen), 14.6 KDa (Ribonuclease A). Also shown are theoretical monomer sizes (kDa) of Erh1 protein and Mmi1^95–122 peptide TEXT PRINTED IN THE PICTURE: (e) Mmi1^95–122 - Erh1: KD (μM) 0.83±0.19; N (sites) 0.90±0.01; ΔH (kJ per mol) −106±3.02 | (f) Mmi1^95–122: Erh1 KD (μM): 0.83±0.19 | (f) Mmi1^106–122: Erh1 KD (μM): 9.94±1.19 | (f) Mmi1^95–111: Erh1 KD (μM): no binding | (g) Erh1: 13.2 kDa | (g) Mmi1^95–122: 3.5 kDa
A region of Erh1 (residues 1–104) was amplified by PCR from the S. pombe genome and cloned into a modified pET28a (Novagen) vector without a thrombin protease cleavage site (p28a). GST-Mmi1^YTH was sub-cloned from a Mmi1^YTH-p28a construct to a modified PGex-4T1 vector with a TEV protease cleavage site (Tev4T1). […]

[1] = type: physicochemical; settings: pH 7.5

Mmi1^95–122: Mmi1 fragment, residues 95–122, Erh1-interacting domain (EID) ({SUMO}-GKYDFSRHCTDYGHSYEWPYFRSLRRES; not fully specified)
ΔH (binding enthalpy) (Erh1 (Erh1wt)): −106±3.02 kJ per mol | ΔH (binding enthalpy) (Erh1 (Erh1wt); listed as Mmi195-11 2): -106±3.02 kJ per mol | binding affinity (in words) (Erh1 R23A; Erh1 Arg23 substituted with alanine): significantly reduced the binding affinity | ΔH (binding enthalpy) (Erh1 R23A; Erh1 R23A, 293 K, pH 7.5): -24.2±4.87 kJ per mol | binding affinity (in words) (Erh1 D27A; Erh1 Asp27 substituted with alanine): significantly reduced the binding affinity | ΔH (binding enthalpy) (Erh1 D27A; Erh1 D27A, 293 K, pH 7.5): -58.8±1.58 kJ per mol | ΔH (binding enthalpy) (Erh1 D68A; Erh1 D68A, 293 K, pH 7.5): -47.6±1.30 kJ per mol | affinity (in words) (Erh1 D68A; Erh1^D68A mutant): reduced | ΔH (binding enthalpy) (Erh1 E85A): -81.9±1.70 kJ per mol | interaction with Erh1 (GST pull-down) (Erh1): sufficient for interaction | solubility of synthesized peptide [1]: could not be dissolved in the interaction buffer
